# What was measured:
# [1] = Stability of the 212Pb-labelled product at room temperature (radio-TLC); assay type: physicochemical
# Protocol: Since the radiolysis and alpha decay is often discussed as fatal for the radiolabelled molecules in solution (Roscher et al. [2020]), the stability of the ^212Pb-labelled product was tested at room temperature. A TLC sample was taken from the product vial 4 h after radiosynthesis. Right after development of the TLC strip, > 20% of activity was found as unbound activity at the front of the TLC (Fig. S3). […] The activity at the front of the TLC was mainly due to free ^208Tl, which is reasonable due to 36% direct alpha decay from ^212Bi.
# RCP was monitored by thin-layer chromatography (TLC) on iTLC-SG plates (Agilent, Santa Clara, California, USA). Measurement of the radionuclidic purity (RNP) and evaluation of the radio-TLC and was performed with a thin-layer scanner (MiniScanPRO + , Eckert&Ziegler Eurotope GmbH, Berlin, Germany) equipped with a Model 43–2 alpha detector ZnS(Ag) scintillator (Ludlum Measurements, Sweetwater, Texas, USA) and a built-in multi-channel analyzer for gamma spectroscopy.
# [2] = tested on: neuroendocrine tumours (NET); assay: Individual patient application of the 212Pb-labelled peptide; assay type: in vivo, human; details: patients, doses of 1–1.5 MBq/kg
# Protocol: The precursor concentration (0.1 µg/MBq) results in a maximum mass of 50 µg (31.7 nmol) for 500 MBq ^212Pb-labelled peptide, which is half to the mass used for routine ^177Lu-preparations with 5000 MBq (Brogsitter et al. [2017]). At this concentration, any ^212Bi generated during the reaction time by free ^212Pb is rebound by the precursor (Li et al. [2023]). Typically, doses of 1–1.5 MBq/kg were administered per patient. […] The detailed results of patient treatments will be discussed in a further publication.
# [3] = tested on: somatostatin receptor subtype 2 (SSTR2); details: ref Li et al. [2023]; cited from earlier work
# Text: (§1) The well-known chelator DOTA and its derivatives tend to lose up to 40% of ^212Bi from its ^212Pb-complexes due to β^–-conversion accompanied by 38% conversion electrons and a cascade of Auger-Meitner electrons (Mirzadeh et al. [1993]; Bauer et al. [2024]). […] PSC-PEG2-TOC (VMT-α-NET) is a somatostatin receptor subtype 2 (SSTR2) targeting peptide of very high stability for the treatment of neuroendocrine tumours ...
# [4] = DOTA and its derivatives; ref Mirzadeh et al. [1993]; Bauer et al. [2024]; cited from earlier work
# Text: as §1
compound,measurement,setting,value
[^212Pb]Pb-PSC-PEG2-TOC [[^212Pb]Pb-VMT-α-NET],free 212Bi together with free 208Tl daughter nuclides observed in the TLCs,"[1]; 4 h after radiosynthesis, radio-TLC",up to 20%
same,spot for unbound radionuclides on TLC,"[1]; product vial at room temperature, TLC sample taken 4 h after radiosynthesis, measured 10 h after development of the TLC strip, iTLC-SG, citrate eluant (Fig. S4)",below 5%
same,unbound activity at the front of the TLC,"[1]; product vial at room temperature, TLC sample taken 4 h after radiosynthesis, measured right after development of the TLC strip, iTLC-SG, citrate eluant (Fig. S3)",> 20%
same,radiolysis of the 212Pb-labelled product,"[1]; room temperature, within 4 h after radiosynthesis, radio-TLC",no significant radiolysis
same,disease response in individual patient application,[2],stable disease for more than six months
PSC-PEG2-TOC [VMT-α-NET],renal excretion,[3],fast renal excretion
same,tumour accumulation,[3],rapid tumour accumulation
same,tumour retention,[3],high tumour retention
O=C(O)CN1CCN(CC(=O)O)CCN(CC(=O)O)CCN(CC(=O)O)CC1 [DOTA],loss of 212Bi from 212Pb-complexes due to β−-conversion,[4],up to 40%
